Series [1] deals with T1, ZFP106 Znf1 (Z1) (Homo sapiens, UniProt Q9H2Y7 SEQ:1-25). Put plainly: EMSA; binds G-q structure. The note with it: G4. On the technique in general: In EMSA bound probe runs differently from free probe, usually more slowly.
Series [2] has as its target T1, ZFP106 Znf1 (Z1). Put plainly: EMSA; binds non-G-q structure. Conditions: non-G4.

T1 sequence (Q9H2Y7 20-44): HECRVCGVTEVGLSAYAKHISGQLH

As for GGGGCCGGGGCCGGGGCCGGGGCCGGGGCCGGGGCCGGGGCCGGGGCC (ssRNA) [(G4C2)8 RNA G-quadruplex], the binding result in series [1] is reported as “binds”. GGGGCCGGGGCCGGGGCCGGGGCCGGGGCCGGGGCCGGGGCCGGGGCC (ssRNA) [(G4C2)8 RNA non-G-quadruplex]: the binding result in series [2] is “binds”.

Source of the values: US20220409745, “COMPOSITIONS AND METHODS OF USING ENGINEERED FUSION PROTEINS THAT BIND G4C2 HUMAN REPEATS” (The Regents of the University of California, published 2022).
